According to patent publication US7399869B2, “Fibroblast activation protein inhibitor compounds and methods” (Genentech, Inc., priority 2005, dated 2008):

Columns and labels:
[1] = substrate: CC(=O)NCC(=O)N1CCCC1C(=O)Nc1ccc2c(C(F)(F)F)c(CC(N)=O)c(=O)oc2c1; assay: Hydrolysis of C-terminal coumarin dipeptide substrates by DPP-4 (kinetic constants); format: biochemical; conditions: other: DPP-4, substrates with blocked N-termini, 23° C., pH 7.4, NC = no cleavage up to 1 mM substrate
Experimental: (§1) The relative cleavage rates by FAP and several dipeptidases of N-blocked (8) and unblocked (7) Gly-Pro dipeptide substrates were measured.
(§2) The cleavage (hydrolysis) rates of various C-terminal coumarin dipeptide substrates 7-16 by FAP and DPP-4 were measured (Tables 4 and 5). The amino-terminus of the substrates was unblocked and the amino acids were varied in Table 4. The amino-terminus of the substrates was blocked and the amino acids were varied in Table 5. To extend the results obtained with the dipeptide substrate library, kinetic parameters were determined for cleavage of the unblocked dipeptide substrates by FAP (Table 4). The catalytic efficiency (kcat/Km) for substrate cleavage was greatest with Ile-Pro-AFC, followed by Ala-Pro-, Gly-Pro- and Phe-Pro-AFC, consistent with the dipeptide substrate library results (FIG. 5). […] Kinetic constants for cleavage of Ala-Pro-AFC and Gly-Pro-AFC by DPP-4 were determined (Table 4). The catalytic efficiency for Ala-Pro-AFC hydrolysis was greater than that for Gly-Pro-AFC, and consistent with the dipeptide library.
(§3) Protease Assays—Protease activity was monitored continuously using a SpectraMax M2 microplate reader (Molecular Devices Corp., Sunnyvale Calif.) in the kinetic mode. Assays were conducted at 23° C. in 50 mM Tris (pH 7.4), 100 mM NaCl, 1 mM EDTA. The excitation/emission wavelengths for the different fluorogenic substrates were 360/460 nm (AMC), 400/505 nm (AFC), 340/425 nm (MNA), 340/510 nm (EDANS), and 337/425 nm (Abs). Standard curves of the appropriate fluorescent product versus concentration were used to convert relative fluorescence units to nmol of product produced. Substrates in the X-Pro-AMC library were used in rate assays at 5 μM final concentration. […] The kinetic parameters were calculated from Michaelis-Menten plots (V0 versus [S]) with nonlinear regression analysis using GraphPad software. kcat values were calculated under the assumption that each protease was 100% active.
(§4) When saturating amounts of substrate could not be achieved, catalytic efficiencies (kcat/Km) were determined under pseudo-first order conditions ([S]<<the estimated Km) and fit to the following equation: Ln[St/S0]=−kobst, where St is the concentration of substrate remaining at time t, S0 is the initial substrate concentration and kobs is the apparent first order substrate cleavage constant equal to (kcat/Km) times ET, the total enzyme concentration (Copeland, R. (2000) Enzymes, A Practical Introduction to Structure, Mechanism, and Data Analysis, 2nd Ed., John Wiley and Sons, Inc, New York). The linear relationship of Ln[St/S0] versus time allows calculation of kcat/Km by dividing the slope of the plot by ET.

[2] = substrate: NCC(=O)N1CCCC1C(=O)Nc1ccc2c(C(F)(F)F)c(CC(N)=O)c(=O)oc2c1; assay: as above; format: biochemical; conditions: other: DPP-4, substrates with unblocked N-termini, 23° C., pH 7.4
Experimental: as §1, §2, §3, §4

B1: DPP-4 (Homo sapiens) (protein)
chain: SRKTYTLTDYLKNTYRLKLYSLRWISDHEYLYKQENNILVFNAEYGNSSVFLENSTFDEFGHSINDYSISPDGQFILLEYNYVKQWRHSYTASYDIYDLNKRQLITEERIPNNTQWVTWSPVGHKLAYVWNNDIYVKIEPNLPSYRITWTGKEDIIYNGITDWVYEEEVFSAYSALWWSPNGTFLAYAQFNDTEVPLIEYSFYSDESLQYPKTVRVPYPKAGAVNPTVKFFVVNTDSLSSVTNATSIQITAPASMLIGDHYLCDVTWATQERISLQWLRRIQNYSVMDICDYDESSGRWNCLVARQHIEMSTTGWVGRFRPSEPHFTLDGNSFYKIISNEEGYRHICYFQIDKKDCTFITKGTWEVIGIEALTSDYLYYISNEYKGMPGGRNLYKIQLSDYTKVTCLSCELNPERCQYYSVSFSKEAKYYQLRCSGPGLPLYTLHSSVNDKGLRVLEDNSALDKMLQNVQMPSKKLDFIILNETKFWYQMILPPHFDKSKKYPLLLDVYAGPCSQKADTVFRLNWATYLASTENIIVASFDGRGSGYQGDKIMHAINRRLGTFEVEDQIEAARQFSKMGFVDNKRIAIWGWSYGGYVTSMVLGSGSGVFKCGIAVAPVSRWEYYDSVYTERYMGLPTPEDNLDHYRNSTVMSRAENFKQVEYLLIHGTADDNVHFQQSAQISKALVDVGVDFQAMWYTDEDHGIASSTAHQHIYTHMSHFIKQCFSLP
notes: DPP-4 (amino acids 39-766); FLAG (N); made in house; host or cells: 293 cells (secreted, purified from serum-free conditioned media)
kcat [1]: < 0.07 s⁻¹ | kcat/Km [1]: 36 ± 3 M⁻¹ s⁻¹ | Km [2]: 76 ± 10 µM | kcat [2]: 121 ± 5 s⁻¹ | kcat/Km [2]: 1.6e+06 M⁻¹ s⁻¹
